These results are taken from PMC2265524, “ruvA Mutants That Resolve Holliday Junctions but Do Not Reverse Replication Forks” (PLoS Genetics, 2008).

Data set [1] concerns the target T1, RuvAz3 (Escherichia coli, UniProt P0A809 1-203, H29R;K129E;F140S).
T1 sequence: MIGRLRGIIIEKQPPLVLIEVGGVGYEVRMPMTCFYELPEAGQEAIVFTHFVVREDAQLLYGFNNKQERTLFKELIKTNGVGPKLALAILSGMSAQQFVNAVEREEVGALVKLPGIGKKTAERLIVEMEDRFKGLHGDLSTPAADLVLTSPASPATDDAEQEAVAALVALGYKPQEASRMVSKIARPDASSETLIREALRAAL
The experiment in a line: EMSA; 5 mM EDTA; EMSA with ~4-5 ng labelled DNA; 5 mM EDTA (gel 0.5x TBE) or 3 mM MgCl2 without EDTA (gel 0.5x TB + 200 uM MgCl2); buffer as in cited ref 18; salt, pH and temperature not stated. The conditions noted are these: protein: recombinant; chain copies: 4; label: 5' IRD700 on S24 (IT.01); fork of 3 strands; two arms double-stranded, one single-stranded (5' part of strand 2). Background: Mobility shift assays separate free from complexed probe on a gel.

In data set [2] the target is T2, RuvAz87 (Escherichia coli, UniProt P0A809 1-203, N79D;N100D).
T2 sequence: T1 sequence with R29H, N79D, N100D, E129K, S140F
Described as above. The following applies: protein: recombinant; chain copies: 4; label: 5' IRD700 on S24 (IT.01); fork of 3 strands; two arms double-stranded, one single-stranded (5' part of strand 2).

Data set [3] has as its target T1, RuvAz3. The experiment in a line: EMSA; 3 mM Mg2+; EMSA with ~4-5 ng labelled DNA; 5 mM EDTA (gel 0.5x TBE) or 3 mM MgCl2 without EDTA (gel 0.5x TB + 200 uM MgCl2); buffer as in cited ref 18; salt, pH and temperature not stated. The conditions noted are these: protein: recombinant; chain copies: 4; label: 5' IRD700 on S24 (IT.01); three-arm fork of 4 strands, all arms double-stranded.

For data set [4], the target named is T2, RuvAz87. The data set is described as above. The conditions noted are these: protein: recombinant; chain copies: 4; label: 5' IRD700 on S24 (IT.01); three-arm fork of 4 strands, all arms double-stranded.

Changes are numbered by the printed parent chain.

B1: F1 (fork, one arm single-stranded) (structured_DNA)
DNA 1: GACGCTGCCGAATTCTACCAGTGCCTTGCTAGGACATCTTTGCCCACCTGCAGGTTCACCC
DNA 2: ATGGATAGTCGGATCCTCTAGACAGCTCCATGTAGCAAGGCACTGGTAGAATTCGGCAGCGT
DNA 3: TGGGTGAACCTGCAGGTGGGCAAAGATGTCC
As for B1, the binding result with RuvAz3 [1] and with RuvAz87 [2] was “no binding” throughout.

B2: F2 (fork, three double-stranded arms) (structured_DNA)
DNA 1: B1 DNA 1
DNA 2: B1 DNA 2
DNA 3: B1 DNA 3
DNA 4: CATGGAGCTGTCTAGAGGATCCGACTATCGA
For B2, the binding result in the data set with RuvAz3 [3] and with RuvAz87 [4] was “no binding” in each case.
